According to paper PMC8415449:

Molecular target: MtrAB complex (Shewanella oneidensis MR-1)
Assay: AUC; sedimentation equilibrium (SE-AUC), 20°C, 8,000, 10,000 and 12,000 rpm, absorbance at 410 nm; 50 mM sodium phosphate, 50 mM NaCl, 0.1% (v/v) Triton X-100, pH 7.5; 0.4 uM single proteins, 0.25 uM + 0.25 uM mixture; fits to a single non-interacting species

## Ru-MtrC (soluble Y657C MtrC labelled at Cys657 with a Ru(II)-bipyridine dye) (from UniProt Q8EG34 26-671) (natural protein)
  stoichiometry N (Ru-MtrC per MtrAB): 1
